Measured values from patent US20230192785A1, “JNK3 INHIBITORY PEPTIDES” (UNIVERSITA' DEGLI STUDI DI MILANO, priority 2020, published 2023).
Ends that are not written are not given here.

Key:
JNK3 = JNK3 (Homo sapiens, UniProt P53779); test: Alpha Screen Kinase Assay, cell-free JNK3 activity; type: biochemical; conditions: cell-free AlphaScreen, FIG. 3B
Description: FIG. 3: A) Cell-free assay of JNK1 activity in the presence of peptides according to the invention.
To evaluate the specificity of the four peptides described above for JNK3, the Alpha Screen Kinase Assay was performed, following the experimental method described for the cell-free assays. Briefly, this AlphaScreen assay is used to measure the ability of the JNK kinase to phosphorylate its targets. The kinase reaction was performed under the following buffer conditions of the assay: 20 mM Tris / HCl (pH 7.4), 10 mM MgCl2, 1 mM DTT, 100 µM Na3VO4 and 0.01% Tween-20. Compounds (final concentration 5 µg / mL, 1% DMSO) or the control vehicle (final concentration 1% DMSO) were diluted in the assay buffer and mixed with JNK kinase (final concentration 5 nM). After an incubation time of 15 minutes at room temperature, biotinylated substrate, 6 nM final and ATP, 1 µM final diluted in assay buffer were added, followed by incubation of the dishes for 2 hours at room temperature. After this incubation period, the streptavidin donor and acceptor beads coated with anti-phosphosubstrate protein A antibody were added, with a final concentration of each component of 20 µg / mL, diluted in the following buffer: 20 mM Tris / HCl (pH 7.4), 200 mM NaCl, 80 mM ethylenediamine tetraacetic acid (EDTA) and 0.3% bovine serum albumin (BSA). After an overnight incubation, the dosage was measured using the AlphaQuest reader.
The ATP-competitive and non-selective inhibitor SP600125 was used as a positive control for the different isoforms of JNK.

[1] = Toxicity after single injection: body weight and side effects in mice; type: in vivo, mouse
Description: FIG. 9: A) Measurement of body weight in mice before treatment. Data are expressed as mean body weight (g) ± SEM. B) Weight gain or loss was analyzed as the difference between the weight at the end and before the treatment. Data are expressed as mean ± SEM.
Therefore, SIMBA2 at the highest dose was able to prevent synaptopathy in vivo.
The toxicity of SIMBA2 after a single injection was evaluated. As an index of the general health of the animals, the change in the body weight of the mice was evaluated. […] 1 month after the I.P. injection, the body weight was measured again.

mouse cortical neurons = test: MTT toxicity assay on cortical neurons under control conditions; type: cell-based; conditions: 24 hours, 3 doses tested, FIG. 4A
Description: FIG. 4: A) Toxicity at the indicated concentrations of SIMBA2 was evaluated by MTT assay and it is expressed in % survival. Data are expressed as mean ± SEM of 3 independent experiments (n = 6). ANOVA one-way, Dunnett post hoc test. B) Western blot of cortical neurons under control conditions and relative quantification showing that SIMBA2 (0.25-0.5 µM) prevents the phosphorylation of APP at the T668 position in a dose-dependent manner. Data are expressed as mean ± SEM of 3 independent experiments (n = 6). ANOVA one-way, Dunnett’s post-hoc test, ** p <0.01. C) Western blot and related quantification showing that SIMBA2 (0.25-0.5 µM) reduces P-c-Jun phosphorylation in neurons. Data are expressed as mean ± SEM of 3 independent experiments (n = 6). […]
FIG. 10: A) Toxicity at the indicated concentrations of SIMBA2, evaluated by MTT assay and expressed as fold of change with respect to tcontrol. Data are expressed as mean ± SEM of 3 independent experiments (n = 6). […] B) Western blot of cortical neurons under control conditions in the absence (Ctr) or in the presence of SIMBA2 1 µM (1) and relative quantification showing that SIMBA2 (1 µM) at 24 h prevents the phosphorylation of P-c-Jun and reduces the phosphorylation of the APP at position T668 and C) the activity is maintained at 3 days and D) at 6 days after treatment. Data are expressed as mean ± SEM of 2 independent experiments (n = 5). […]

Chain of JNK3 (P53779 whole entry, species assumed): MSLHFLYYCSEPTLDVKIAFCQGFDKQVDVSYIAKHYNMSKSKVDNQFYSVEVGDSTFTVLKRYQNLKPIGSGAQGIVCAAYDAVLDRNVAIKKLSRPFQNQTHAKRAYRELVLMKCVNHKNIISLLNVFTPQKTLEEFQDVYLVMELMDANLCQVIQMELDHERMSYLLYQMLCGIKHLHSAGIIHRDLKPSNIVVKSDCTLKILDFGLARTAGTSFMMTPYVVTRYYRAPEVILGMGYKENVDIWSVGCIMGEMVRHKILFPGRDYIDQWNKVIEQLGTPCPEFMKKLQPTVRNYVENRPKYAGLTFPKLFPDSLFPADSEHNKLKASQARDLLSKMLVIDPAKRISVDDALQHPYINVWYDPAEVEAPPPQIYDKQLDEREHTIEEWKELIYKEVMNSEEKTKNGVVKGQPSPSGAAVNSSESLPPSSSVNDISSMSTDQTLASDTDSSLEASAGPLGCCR

Substance | inhibition of JNK3 activity on p-c-Jun (JNK3) | change in body weight ([1]; 1 month after single I.P. injection, FIG. 9B) | side effects in vivo ([1]; TgCRND8 mice, 22 mg/kg) | toxicity (MTT, % survival) (mouse cortical neurons)
SIMBA2 long A: peptide SDRSLHLEANEKGENVNVHVTKTNEKGEKIKVSVRQYADINEKGEAQYKCPVAQLE (Designed peptide based on size and structure to act in the interaction among beta-arrestin-2 and JNK3) | inhibit the activity of JNK3 on p-c-Jun in a concentration-dependent manner | – | – | –
SIMBA2 short A: peptide SDRSLHLEAEKGNVNVHVTKTEKGKIKVSVRQYADIEKGAQYKCPVAQLE (Designed peptide based on size and structure to act in the interaction among beta-arrestin-2 and JNK3) | inhibit the activity of JNK3 on p-c-Jun in a concentration-dependent manner | – | – | –
SDRSLHLEANEKGENVNVHVTKTRADKSKIKVSVRQYADINEKGEAQYKCPVAQLE [SIMBA2] | – | did not show changes in body weight | did not lead to the onset of any noticeable side effects | no toxicity
SIMBA2 short B: peptide SDRSLHLEAEKGNVNVHVTKTADKKIKVSVRQYADIEKGAQYKCPVAQLE (Designed peptide based on size and structure to act in the interaction among beta-arrestin-2 and JNK3) | inhibit the activity of JNK3 on p-c-Jun in a concentration-dependent manner | – | – | –
